T1: APBA1_1, Q02410
T1 sequence (Q02410 651-752, limits assumed, looked up): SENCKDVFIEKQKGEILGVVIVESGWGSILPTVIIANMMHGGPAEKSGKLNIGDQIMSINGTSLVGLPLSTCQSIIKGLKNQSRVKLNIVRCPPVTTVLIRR

T2: GRIP1_5, Q9Y3R0
T2 sequence (Q9Y3R0 568-668, limits assumed, looked up): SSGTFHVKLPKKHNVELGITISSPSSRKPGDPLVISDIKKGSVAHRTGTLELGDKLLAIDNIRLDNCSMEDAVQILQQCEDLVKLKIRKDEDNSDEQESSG

T3: TJP3_3, O95049
T3 sequence (O95049 375-456, limits assumed, looked up): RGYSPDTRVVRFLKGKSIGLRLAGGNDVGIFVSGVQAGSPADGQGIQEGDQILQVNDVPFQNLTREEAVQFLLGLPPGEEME

T4: MPP7, Q5T2T1
T4 sequence (Q5T2T1 134-230, limits assumed, looked up): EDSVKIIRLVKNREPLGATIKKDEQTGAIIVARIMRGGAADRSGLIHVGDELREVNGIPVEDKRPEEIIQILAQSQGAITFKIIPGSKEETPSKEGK

T5: APBA2_1, Q99767
T5 sequence (Q99767 563-664, limits assumed, looked up): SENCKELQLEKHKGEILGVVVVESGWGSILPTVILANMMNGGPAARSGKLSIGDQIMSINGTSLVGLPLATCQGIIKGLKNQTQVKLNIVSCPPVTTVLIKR

T6: GRIP1_3, Q9Y3R0
T6 sequence (Q9Y3R0 247-346, limits assumed, looked up): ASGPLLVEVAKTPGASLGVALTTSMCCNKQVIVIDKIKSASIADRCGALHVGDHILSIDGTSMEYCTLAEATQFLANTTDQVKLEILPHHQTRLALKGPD

T7: GRIP1_7, Q9Y3R0
T7 sequence (Q9Y3R0 999-1096, limits assumed, looked up): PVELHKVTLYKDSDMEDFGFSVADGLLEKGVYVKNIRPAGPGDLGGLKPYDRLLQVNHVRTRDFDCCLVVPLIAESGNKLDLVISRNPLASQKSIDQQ

T8: SYNJ2BP, P57105
T8 sequence (P57105 8-110, limits assumed, looked up): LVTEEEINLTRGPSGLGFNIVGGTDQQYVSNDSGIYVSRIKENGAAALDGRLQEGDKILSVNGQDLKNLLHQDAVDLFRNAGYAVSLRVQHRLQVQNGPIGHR

T9: GRIP1_2, Q9Y3R0
T9 sequence (Q9Y3R0 145-248, limits assumed, looked up): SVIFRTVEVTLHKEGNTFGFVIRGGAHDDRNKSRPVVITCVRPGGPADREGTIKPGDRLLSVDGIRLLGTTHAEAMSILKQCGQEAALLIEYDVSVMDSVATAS


Key:
Assay in all cases: holdup assay
Set-up in all cases: key: below the threshold = too weak to quantify, mostly under pKd 3.1 to 4
Conditions in all cases: plain residues with an end cap or a label only (N-terminal biotin on a linker: ado-ado)
GORASP2, Q9H8Y8 = target: GORASP2, Q9H8Y8
APBA1_1, Q02410 = target: T1, APBA1_1, Q02410
Inadl_2, Q8NI35 = target: Inadl_2, Q8NI35
Sequence of Inadl_2, Q8NI35 (Q8NI35 238-335): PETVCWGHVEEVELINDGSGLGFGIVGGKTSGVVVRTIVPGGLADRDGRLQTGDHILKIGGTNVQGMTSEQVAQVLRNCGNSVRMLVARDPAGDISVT

FRMPD4, Q14CM0 = target: FRMPD4, Q14CM0
Sequence of FRMPD4, Q14CM0 (Q14CM0 67-160): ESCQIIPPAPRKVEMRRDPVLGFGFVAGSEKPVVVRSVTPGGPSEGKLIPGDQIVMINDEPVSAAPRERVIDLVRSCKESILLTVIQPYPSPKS

PDZRN4_1, Q6ZMN7 = target: PDZRN4_1, Q6ZMN7
Sequence of PDZRN4_1, Q6ZMN7 (Q6ZMN7 213-318): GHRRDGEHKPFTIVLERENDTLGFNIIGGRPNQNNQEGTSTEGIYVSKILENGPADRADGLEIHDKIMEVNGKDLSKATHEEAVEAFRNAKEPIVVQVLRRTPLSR

LAP2, Q96RT1 = target: LAP2, Q96RT1
Sequence of LAP2, Q96RT1 (Q96RT1 other isoform, or with tags, fused parts or gaps): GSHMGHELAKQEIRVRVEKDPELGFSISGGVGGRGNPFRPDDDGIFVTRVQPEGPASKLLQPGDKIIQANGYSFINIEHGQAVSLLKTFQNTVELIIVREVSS

GRIP2_5, Q9C0E4 = target: GRIP2_5, Q9C0E4
Sequence of GRIP2_5, Q9C0E4 (Q9C0E4 544-642): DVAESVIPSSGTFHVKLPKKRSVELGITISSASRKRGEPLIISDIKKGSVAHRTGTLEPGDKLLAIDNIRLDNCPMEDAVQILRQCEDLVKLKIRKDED

MAGI2_4, Q86UL8 = target: MAGI2_4, Q86UL8
Sequence of MAGI2_4, Q86UL8 (Q86UL8 772-865): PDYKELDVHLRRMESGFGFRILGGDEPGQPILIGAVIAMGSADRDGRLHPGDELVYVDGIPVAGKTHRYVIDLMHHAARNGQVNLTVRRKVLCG

MAGI2_2, Q86UL8 = target: MAGI2_2, Q86UL8
Sequence of MAGI2_2, Q86UL8 (Q86UL8 410-522): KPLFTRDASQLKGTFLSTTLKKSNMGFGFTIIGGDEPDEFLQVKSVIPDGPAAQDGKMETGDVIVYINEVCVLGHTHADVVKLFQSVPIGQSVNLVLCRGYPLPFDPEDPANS

SCRIB_2, Q14160 = target: SCRIB_2, Q14160
Sequence of SCRIB_2, Q14160 (Q14160 857-960): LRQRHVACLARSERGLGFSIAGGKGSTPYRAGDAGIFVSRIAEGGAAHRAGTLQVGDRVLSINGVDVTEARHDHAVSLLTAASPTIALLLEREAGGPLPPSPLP

SNX27, Q96L92 = target: SNX27, Q96L92
HTRA2, O43464 = target: HTRA2, O43464
Sequence of HTRA2, O43464 (O43464 355-458): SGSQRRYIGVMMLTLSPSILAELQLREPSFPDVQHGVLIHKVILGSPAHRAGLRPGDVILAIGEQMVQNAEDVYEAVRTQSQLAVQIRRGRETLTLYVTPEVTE

GRIP2_7, Q9C0E4 = target: GRIP2_7, Q9C0E4
Sequence of GRIP2_7, Q9C0E4 (Q9C0E4 934-1023): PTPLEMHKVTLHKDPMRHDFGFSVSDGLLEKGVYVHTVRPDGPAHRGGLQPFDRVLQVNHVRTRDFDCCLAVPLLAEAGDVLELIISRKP

GRIP2_4, Q9C0E4 = target: GRIP2_4, Q9C0E4
Sequence of GRIP2_4, Q9C0E4 (Q9C0E4 446-548): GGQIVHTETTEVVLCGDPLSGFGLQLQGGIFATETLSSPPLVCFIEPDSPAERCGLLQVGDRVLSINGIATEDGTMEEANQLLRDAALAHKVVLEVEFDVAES

CASK, O14936 = target: CASK, O14936
Sequence of CASK, O14936 (O14936 487-570): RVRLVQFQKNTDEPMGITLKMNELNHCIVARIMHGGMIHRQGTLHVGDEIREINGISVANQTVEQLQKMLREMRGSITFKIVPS

SCRIB_1, Q14160 = target: SCRIB_1, Q14160
Sequence of SCRIB_1, Q14160 (Q14160 718-814): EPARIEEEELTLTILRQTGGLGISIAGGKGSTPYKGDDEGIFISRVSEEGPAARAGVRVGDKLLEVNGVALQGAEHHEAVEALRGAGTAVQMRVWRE

GRIP1_5, Q9Y3R0 = target: T2, GRIP1_5, Q9Y3R0
TJP3_3, O95049 = target: T3, TJP3_3, O95049
MPP7, Q5T2T1 = target: T4, MPP7, Q5T2T1
APBA2_1, Q99767 = target: T5, APBA2_1, Q99767
GRID2IP_1, A4D2P6 = target: GRID2IP_1, A4D2P6
Sequence of GRID2IP_1, A4D2P6 (A4D2P6 1-87): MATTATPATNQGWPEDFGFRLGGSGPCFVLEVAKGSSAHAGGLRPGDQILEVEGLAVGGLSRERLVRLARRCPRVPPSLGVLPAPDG

DLG5_1, Q8TDM6 = target: DLG5_1, Q8TDM6
Sequence of DLG5_1, Q8TDM6 (Q8TDM6 617-713): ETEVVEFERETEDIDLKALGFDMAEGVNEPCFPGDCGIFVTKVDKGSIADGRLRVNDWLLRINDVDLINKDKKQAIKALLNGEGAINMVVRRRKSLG

TJP2_1, Q9UDY2 = target: TJP2_1, Q9UDY2
Sequence of TJP2_1, Q9UDY2 (Q9UDY2 24-128): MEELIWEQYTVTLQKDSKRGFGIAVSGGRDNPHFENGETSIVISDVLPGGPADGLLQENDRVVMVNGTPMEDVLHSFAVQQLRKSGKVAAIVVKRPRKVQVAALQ

GRIP1_3, Q9Y3R0 = target: T6, GRIP1_3, Q9Y3R0
GRIP1_7, Q9Y3R0 = target: T7, GRIP1_7, Q9Y3R0
GRIP2_6, Q9C0E4 = target: GRIP2_6, Q9C0E4
Sequence of GRIP2_6, Q9C0E4 (Q9C0E4 648-740): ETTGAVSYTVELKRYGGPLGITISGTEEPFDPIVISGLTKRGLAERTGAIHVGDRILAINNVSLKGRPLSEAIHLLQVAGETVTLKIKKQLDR

SYNJ2BP, P57105 = target: T8, SYNJ2BP, P57105
GRIP1_2, Q9Y3R0 = target: T9, GRIP1_2, Q9Y3R0

| Binder | pKd (GORASP2, Q9H8Y8) | pKd (APBA1_1, Q02410) | pKd (Inadl_2, Q8NI35) | pKd (FRMPD4, Q14CM0) | pKd (PDZRN4_1, Q6ZMN7) | pKd (LAP2, Q96RT1) | pKd (GRIP2_5, Q9C0E4) | pKd (MAGI2_4, Q86UL8) | pKd (MAGI2_2, Q86UL8) | pKd (SCRIB_2, Q14160) | pKd (SNX27, Q96L92) | pKd (HTRA2, O43464) | pKd (GRIP2_7, Q9C0E4) | pKd (GRIP2_4, Q9C0E4) | pKd (CASK, O14936) | pKd (SCRIB_1, Q14160) | pKd (GRIP1_5, Q9Y3R0) | pKd (TJP3_3, O95049) | pKd (MPP7, Q5T2T1) | pKd (APBA2_1, Q99767) | also measured |
| --- | --- | --- | --- | --- | --- | --- | --- | --- | --- | --- | --- | --- | --- | --- | --- | --- | --- | --- | --- | --- | --- |
| FLVTEFNVML [DFNB31, Q9P202] | below the threshold | below the threshold | below the threshold | 4.9 | below the threshold | below the threshold | below the threshold | below the threshold | below the threshold | below the threshold | 4.4 | below the threshold | below the threshold | below the threshold | below the threshold | 3.86 | below the threshold | below the threshold | below the threshold | below the threshold | pKd (GRID2IP_1, A4D2P6): below the threshold; pKd (DLG5_1, Q8TDM6): below the threshold; pKd (TJP2_1, Q9UDY2): below the threshold; pKd (GRIP1_3, Q9Y3R0): below the threshold; pKd (GRIP1_7, Q9Y3R0): below the threshold; pKd (GRIP2_6, Q9C0E4): 4.06; pKd (SYNJ2BP, P57105): below the threshold; pKd (GRIP1_2, Q9Y3R0): below the threshold |
| YAEKRMLTEV [KCNA6, P17658] | 3.92 | below the threshold | below the threshold | below the threshold | below the threshold | below the threshold | below the threshold | 4.34 | 4.33 | below the threshold | below the threshold | below the threshold | below the threshold | below the threshold | below the threshold | 3.63 | below the threshold | below the threshold | below the threshold | below the threshold | pKd (GRID2IP_1, A4D2P6): below the threshold; pKd (DLG5_1, Q8TDM6): below the threshold; pKd (TJP2_1, Q9UDY2): below the threshold; pKd (GRIP1_3, Q9Y3R0): below the threshold; pKd (GRIP1_7, Q9Y3R0): below the threshold; pKd (GRIP2_6, Q9C0E4): below the threshold; pKd (SYNJ2BP, P57105): 4.05; pKd (GRIP1_2, Q9Y3R0): below the threshold |
| PALKNGQYWV [CSPG4, Q6UVK1] | 5.82 | below the threshold | 4.38 | 3.68 | below the threshold | 3.75 | below the threshold | 3.82 | below the threshold | below the threshold | 3.77 | 4.72 | 5.83 | below the threshold | below the threshold | below the threshold | below the threshold | 4.81 | 3.96 | below the threshold | pKd (GRID2IP_1, A4D2P6): below the threshold; pKd (DLG5_1, Q8TDM6): below the threshold; pKd (TJP2_1, Q9UDY2): 4.6; pKd (GRIP1_3, Q9Y3R0): below the threshold; pKd (GRIP1_7, Q9Y3R0): 5.63; pKd (GRIP2_6, Q9C0E4): 3.58; pKd (SYNJ2BP, P57105): below the threshold; pKd (GRIP1_2, Q9Y3R0): below the threshold |
| WAKEKQHTRL [SLC17A1, Q14916] | below the threshold | below the threshold | below the threshold | 3.97 | 3.85 | below the threshold | below the threshold | below the threshold | 4.71 | below the threshold | 4.28 | below the threshold | below the threshold | below the threshold | below the threshold | 4.21 | below the threshold | below the threshold | below the threshold | below the threshold | pKd (GRID2IP_1, A4D2P6): below the threshold; pKd (DLG5_1, Q8TDM6): below the threshold; pKd (TJP2_1, Q9UDY2): 3.82; pKd (GRIP1_3, Q9Y3R0): below the threshold; pKd (GRIP1_7, Q9Y3R0): below the threshold; pKd (GRIP2_6, Q9C0E4): below the threshold; pKd (SYNJ2BP, P57105): below the threshold; pKd (GRIP1_2, Q9Y3R0): below the threshold |
